Measurements as given in the DeepSol protein solubility set.

assay: soluble on expression in E. coli; label from the status in PepcDB or PDB records

Row | Sequence | soluble on expression in E. coli
1 | MLQLKNIGILSTYNSKTDSFDYLKNCNIDIENGIIIGLGDSNHNGDQVIDCNHKLVTPGFVDAHTHPVFVNGREKEFIERISGKSYQEISNKGGGINSSIIRVREIDEIDLLDLVIKRMDDFIYMGTTTIEAKTGYGLNTDSELKSLRVLENAHNKHKIDIFPTFLGAHSVPNEYNGDSNAYTDLLCNEMIPAVAKQGIAKFCDVFCEEEYFDCNQSRKILEKAVEYGLIPRMHTDEFSSIGGVKIASKINAISADHLMEISDEDIELLANSNTIAILLPGTTFFLGKTTYAPARKLIDKGVHVSIATDFNPGSCHIKSMPFIIGLSCIYLGLSIEEALKAATWSGACAINEQERIGSIEVGKKADLIIWDLDTIDQIPYNIINAPIVNVIKDGVPLITLD | soluble
2 | EWALFLDIDGTLVDIAEQPHDVRVAASLPQDLARLADRLGGALALVTGRRVDWIDAHFGPHLFPAAGLHGVERRRASGELDRAGLAPSLNALRKDLGRRTARMPGVLLEDKVAAVALHYRQAPEREPDVRAMMEMALKVMGDGWVLQHGKMVVELRPASANKGTALEAFLTEPPFAGRRPVAIGDDVTDEEMFRVVNACGGLSVRICETEAPTLARARLASPQALRDLVAELGA | not soluble
3 | MLTAATEVLAAADGPGSAESAWAWRDAPIATLVQRIQQLQNERAQAFRRLDQAHRQYLLSGQHYDFPSYRSVVHEVTQAFAAASREVLAVEAELAGPRAQPVLARHVRSLQELEQTRLATVALLQVMGTPGVSEQDPEKLHQLKIKVIKTMEAIGEVLQELRFDAESAE | soluble
4 | MGSDKIHHHHHHQTPSPLGEWQYSAGVPLDKLFNPNPQTWQISVGAAATLQPRYDGSNQYRPMAGPTFDARYRDLWFVSTGEGIGVNVLRGPNWRATLSAGYDLGRREADDRGHLTGIGNINPAAVIKLSADYVISHAFPLVLRADVRRSVGGANGWVADLAAYMPLPGSSETFYWFAGPTVTFADSRYMNSWFGVNDAQAARSGHPRYAPSAGVKSFGGGMTLVWFVTKHWFVTADGAIEQLVGSAARSPLTQRSTNAVVDVSINYQF | not soluble
5 | MGVSRVLHVEGGTPLKGELRVYPAKNAALPILAASLLTPEPITLVEVPRLRDVEVMLELLAHLGTQYAWEGRTLHLQTPEIKSTHAPYELVGQMRASFIVWGALLARAGEGHVSMPGGCAFGFRPVDQHIKALEALGAEVWEEDGTFHARRTRPLSGRVVFDLPTVGGTEQAMLAVALGGEATLVQAAVEPEVVDLGHFLALLGAEVEGLGSPIVRIKGAPRLKGGTYRIIPDRIEAGTYLLAAAATRGSLTLEGVRPDHLDALLDKLWRSGHRLEVGEDWIRFRATPDPAPFHVEAREYPGFPTDLQPIATAYLATVPGQSTVVDRIYPDRFTHVGELARMGAELYLRDRILTVQGRRLHGAQVKALDIRAGGALVVAALSAEGASEIEGVYFLERGYEHLTERLQALGARVHLRESPVALAAD | soluble
6 | MGSDKIHHHHHHMTTTTKKTAERLIKKYPNRRLYDTETSTYITLTDVKQLVLDQEDFKVIDAKSNEDLTRAILLQIILEEESGGLPMFSSSMLSQIIRFYGHAMQGMMGTYLEKNIQAFIDIQAKLADQSKNLYEGKAMNPEVWSQFMNMQAPMMQGMMTSYIEQSKNMFVQMQEQMQNQAKSMFATFPFTPGGAVNVAGGGNAPASPQGNPQGNPEPEKK | not soluble
7 | MPRKRSVALAAWGEEGLLLVLRPQDDPEFPGAWGLPAVSLQGEETLEEAALRVAREKLGAEVAEAGPIAFGVEERPGYTLELWVYEGRLLGRPRLPEPKPGKTYYAAFRFGRPEELKAAARQGSLCSRLFLAVKGLCP | soluble
8 | MSLMDYGIDIWGNENFIIKNGKVCINYEKKPAIIDIVKELRDDGYKGPLLLRFPHLIQKQIENIYGNFNKARKEFGYKGGFNAVYPLKVNQYPGFVKNLVKLGKDYNYGLEAGSKAELLLAMAYNNEGAPITVNGFKDRELINIGFIAAEMGHNITLTIEGLNELEAIIDIAKERFKPKPNIGLRVRLHSAGVGIWAKSGGINSKFGLTSTELIEAVNLLKENKLLEQFTMIHFHLGSQITEIHPLKKALNEAGNIYTELRKMGAKNLKAINLGGGLAVEYSQFKNEKSRNYTLREYANDVVFILKNIAEQKKDLEPDIFIESGRFVAANHAVLIAPVLELFSQEYAENKLILKKQNPKLIDELYDLYKSIKPSNALEYLHDSIDHLESILTLFDLGYVDLQDRSNAEILTHLITKKAILLLGDKQNPADLLAIQDEVQERYLVNFSLFQSMPDFWGLEQNFPIMPLDRLDEEPTRSASIWDITCDSDGEISYSKDKPLFLHDVDVEKENYFLGFFLVGAYQEVLGMKHNLFTHPTEAIISINEKGYEVEGIIEAQSILDTLEDLDYDIHAIMDILNERISNSKLVNDKQKKHILGELYLFLNDNGYLKSIGVEGHHHHHH | soluble
9 | EVKDYMSQPVVLRENTTVYDAICTIFLEDVSTLFIINEDNDFVGVCSRKDLLRASMIGADIHTVPISVNMTRMPNVTYLEESELVIYAADRMIEKEIDSIPIVRKKDNQKYEVIGRISKTTIAKLLVALYKE | not soluble
10 | GKKAVINDSNTPLHLLQPAYQGTYGDLTPEQVKKDIDRVFAYIDKETPARVVDKNTGKVITDYTAMGDEAQLERGAFRLASYEWGVTYSALIAAAETTGDKRYTDYVQNRFRFLAEVAPHFKRVYEEKGKTDSQLLQILTPHALDDAGAVCTAMIKLRLKDESLPVDGLIQNYFDFIINKEYRLADGTFARNRPQRNTLWLDDMFMGIPAVAQMSRYDKEAKNKYLAEAVKQFLQFADRMFIPEKGLYRHGWVESSTDHPAFCWARANGWALLTACELLDVLPEDYPQRPKVMDYFRAHVRGVTALQSGEGFWHQLLDCNDSYLETSATAIYVYCLAHAINKGWIDAIAYGPVAQLGWHAVAGKINEEGQVEGTCVGTGMAFDPAFYYYRPVNVYAAHGYGPVLWAGAEMIRLLNTQHPQMNDSAVQYYQEKQKTTAPIFAVDSE | soluble
11 | RDDSTLVIGHNTGALAHRINDPQHAGSIVTAIKQETDLDVTIECVVGTDPKAAGFSEPENKKVWNPEPKPEPKPEPKPEPKPEPEPAPASDNVWGAPAPLGGGQPATPPPPPVERFSPAKATAPQPPAAPQPVQEAPKPRWQQAAERGMRKMEERAKRPSFSDGVPLPPEPEEPDVPPDLYGYPADEGIPEPQTPQATSNYVVDHDEEEEMVREAAQGVGNRDHRDAMTVAVDILSEELGARQL | not soluble
12 | MGSDKIHHHHHHVDTGNRPSILRMPAQEDFVRFKPGFGTRFLLTVDTEEEFDWSKPLDRTSHGLHHVPRLAKFQQFCEGVGVVPVYLVDFPVASDPRAADILRDAVHAGKAEIGVQLHPWVSPPHDEDVNVHNSFAGNLAPELERAKFRKLRDTIEQAFGVGPLIYRAGRYGVGPATASILSDCAIAIDTSVRSRFDYSSAGGPNFREYPLRPWWIDKRNGLMEMPLTTVFSGLLRQQGQTIYPALWRVPRLRGALARIGMLERIPLTPEGVTLDEAIKGIDMALDDGLEMLVFSFHSPSLCPGHTPYVRDESDLDLFYAWWRGVLTYMQQRNVKPTCVREIMEAAEI | not soluble
13 | MTSQRCRRRYFMMIRERIEEKLRAAFQPVFLEVVDESYRHNVPAGSESHFKVVLVSDRFTGERFLNRHRMIYSTLAEELSTTVHALALHTYTIKEWEGLQDTVFASPPCRGAGSIALEHHHHHH | not soluble
14 | MGSDKIHHHHHHVDDNALPVEETFKDIDLANNLKDCGKPLLLSDIVKDVEYVKLETQDNILVGDIKQLKRTEKFVFIYSRNQRHVMMFDTSGKFIRKIGHVGQGPGEIANIHCFTVSDSLVFIYPFSRNGSLTVYDMRDNSFVKEFSLKWPVFFSWTIDVMGDCLVYYPGTVYLPDNSKTFISACVANGKGETLMEQIPYLSSGDKEIVQLSSDPSWLYRGRSNVYSFINDTIYGITCDSIFPRYHLSLGKYKLPSGRYDPTHDYGWGDFVLMQSVYETKEFLFLELGTLL | not soluble
15 | MDWGRFVEEKVREIRETVGDSKAIIALSGGVDSSTAAVLAHKAIGDRLHAVFVNTGFLRKGEPEFVVKTFRDEFGMNLHYVDAQDRFFSALKGVTDPEEKRKIIGRVFIEVFEEVAKKIGAEYLIQGTIAPDWIESQGKIKSHHNVGGLPEKLNLKLIEPLRDLYKDEVRELAKFLGLPEKIYNRMPFPGPGLAVRVIGEVTPEKIRIVREANAIVEEEVERAGLRPWQAFAVLLGVKTVGVQGDIRAYKETIAVRIVESIDGMTANAMNVPWEVLQRIAFRITSEIPEVGRVLYDITNKPPATIEFE | soluble
16 | MIDITLPLTDIHRHLDGNIRAQTILDLGRQFNIALPAQTLETLIPHVQVTSTEPDLVSFLTKLDWGVKVLASLDACRRVAFENIEDAARNGLHYVELRFSPGYMAMAHQLPIAGVVEAVIDGVRDGCNTFGVEARLIGIMSRTFGEAACLQELDALLAHRENITALDLAGDELGFPGSLFLSHFNRARDAGWHITVHAGEAAGPESIWQAIRELGAERIGHGVKAVEDRALMDFLAQQRIGIESCLTSNIQTSTVASLADHPLKTFLEHGVLASLNTDDPAVQGVDIIHEYHVAAPAAGLSREQIRQAQINGLEIAFLSDSEKRALREKVAEA | not soluble
17 | MTQVSIIVPVLNEESTIHSAVSRLCRDFPDCELIVVDGGSTDATAELAALHATVIGSERGRAKQMNEGARHASGGILWFIHADTAIEPEALGQIRSVLADPAVVAGGLTLRFDRRTPALNYLAWTSNARARRLHHIFGDQAMFIRRTAFDELGGFPDLAIMEDLEMSRRLHRRGPLRLLPATSTASSRRLTAHGTWRMIAFMQYLKLLYFAGADPEAIRARYTAGPRLFPKRNPATLEHHHHHH | not soluble
18 | MAGDPMSRRVIRTYKLAVPGHLSQTCEELNRTAARIYNKTMSLVRKIHQKKGFWLSWPTADKYILRWAENIKIHVHSKQAFVQLYFQALKGYFKATKKNPDAKPPHKKKRYLPFIWKESAVKLLPDGTLRLSLGKERESFVVQTPLKPPLRIKQTRLVFEDGYYLHLAIEVEIEEKNAGSGVMAVDLGVLRPITCFDGKEVISYHGGVLSSVLRYRNKRLASFQSAIAECKKGSRRYNKLVRAKKRVLRRLRNQINDIMHKITSNFIGLCLRKQIGTIVIGDVTGIRERADYSDNANQKIHQWQFRKLIEMIRYKAEQFGIEVKLISEANTSKTCPVCGAKNNPNGRRYHCKACGFEYHRDGVGAINIWKRYPGTGQVVAGLAPVRGVRFHPHLCGHGASLAPWKVALEHHHHHH | not soluble
19 | MADPNESGLSKSVEIGGISDKLDSMKLSKSKLTFTDLPMDALYECFKQLDYLERMPLRKVCRKFKNAVDGMDPGFKKIRICIYEPEAFDVEFDSNLFYFVKESGNATHYSKFNPRKMLKWKFGNGEDSLEVVMKFVTKMMNFSKYCCKLIERILKQSAYPNLKKIHLFGLNSRQTPSILRHFKPGKLEFLWSDSFNAETMKEMYKLDQWKMAKSQFENIKIRDQCAPGIPSTFGYLWNYHRYAKLVTVGKAVEIKNCLMKSTNFKKWEFCMGMSLDAARVFDPNASGFEISRDGGVKGTIRCLFKGHSVKIDFSPWKFEITKE | not soluble
20 | MEKIIVRGGKQLNGSVKMEGAKNAVLPVIAATLLASKGTSVLKNVPNLSDVFTINEVLKYLNADVSFVNDEVTVDATGEITSDAPFEYVRKMRASIVVMGPLLARTGSARVALPGGCAIGSRPVDLHLKGFEAMGAVVKIENGYIEATAEKLVGAKVYLDFPSVGATQNIMMAATLAEGTTVIENVAREPEIVDLANFLNQMGARVIGAGTEVIRIEGVKELTATEHSIIPDRIEAGTFMIAAAITGGNVLIEDAVPEHISSLIAKLEEMGVQIIEEENGIRVIGPDKLKAVDVKTMPHPGFPTDMQSQMMVIQMLSEGTSIMTETVFENRFMHVEEMRRMNADMKIEGHSVIISGPAKLQGAEVAATDLRAAAALILAGLVADGYTQVTELKYLDRGYNNFHGKLQALGADVERVDDSKVDVTNLASLF | not soluble
21 | MHRCGESSVAGTDARIRLEGNRLFVGGPVTYDNVVEVIRTGDAAIKADDMLIDLAGVTWVDSSAVSMLLEWMRTAQTYDRRIEFINLPSNLADLIELYDVGSLIPTDKPAESV | not soluble
